In paper PMC6430810 (2019):

Assays:
[1] = target: T1, human 4EHP (residues 45-234) for ITC (human, UniProt O60573 45-234); test: ITC
T1 chain: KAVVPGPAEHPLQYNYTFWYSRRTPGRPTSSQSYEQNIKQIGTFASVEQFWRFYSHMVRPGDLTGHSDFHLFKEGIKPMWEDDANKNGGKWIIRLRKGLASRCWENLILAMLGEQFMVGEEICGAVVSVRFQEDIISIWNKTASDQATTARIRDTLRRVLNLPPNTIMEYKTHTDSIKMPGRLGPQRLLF

[2] = target: T1, human 4EHP (residues 45-234) for ITC; test: ITC; VP-ITC, 25 °C; TRS (1-74, 0.6 mM) in the syringe titrated against 4EHP (45-234, 0.035 mM); single binding site model

Ka [1]: 403000 M⁻¹
Kd [2]: 2480 nM
stoichiometry N [2]: 1
B1: human TRS UNE-T (residues 1-74) with C-terminal His tag (domain or fragment)
chain: MFEEKASSPSGKMGGEEKPIGAGEEKQKEGGKKKNKEGSGDGGRAELNPWPEYIYTRLEMYNILKAEHDSILAE
